Assays:
Test in all cases: ELISA, lectin-captured E1E2 lysate, Ab 1 ug/ml;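 also: E1E2 captured on Galanthus nivalis lectin-coated plates, bound antibody read out via HRP-linked secondary antibody with TMB colorimetric substrate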
[1] = biological target: E1E2 complex (H77) with E2 mutation T621A (HCV genotype 1a, isolate H77, UniProt P27958 192-383; P27958 384-746)
[2] = biological target: E1E2 complex (H77) with E2 mutation N623A (HCV genotype 1a, isolate H77, UniProt P27958 192-383; P27958 384-746)
[3] = biological target: E1E2 complex (H77) with E2 mutation Y624A (HCV genotype 1a, isolate H77, UniProt P27958 192-383; P27958 384-746)
[4] = biological target: E1E2 complex (H77) with E2 mutation R630A (HCV genotype 1a, isolate H77, UniProt P27958 192-383; P27958 384-746)
[5] = biological target: E1E2 complex (H77) with E2 mutation G634A (HCV genotype 1a, isolate H77, UniProt P27958 192-383; P27958 384-746)
[6] = biological target: E1E2 complex (H77) with E2 mutation G635A (HCV genotype 1a, isolate H77, UniProt P27958 192-383; P27958 384-746)
[7] = biological target: E1E2 complex (H77) with E2 mutation E637A (HCV genotype 1a, isolate H77, UniProt P27958 192-383; P27958 384-746)
[8] = biological target: E1E2 complex (H77) with E2 mutation H638A (HCV genotype 1a, isolate H77, UniProt P27958 192-383; P27958 384-746)
[9] = biological target: E1E2 complex (H77) with E2 mutation R639A (HCV genotype 1a, isolate H77, UniProt P27958 192-383; P27958 384-746)
[10] = biological target: E1E2 complex (H77) with E2 mutation A643G (HCV genotype 1a, isolate H77, UniProt P27958 192-383; P27958 384-746)
[11] = biological target: E1E2 complex (H77) with E2 mutation T425A (HCV genotype 1a, isolate H77, UniProt P27958 192-383; P27958 384-746)
[12] = biological target: E1E2 complex (H77) with E2 mutation L427A (HCV genotype 1a, isolate H77, UniProt P27958 192-383; P27958 384-746)
[13] = biological target: E1E2 complex (H77) with E2 mutation N428A (HCV genotype 1a, isolate H77, UniProt P27958 192-383; P27958 384-746)
[14] = biological target: E1E2 complex (H77) with E2 mutation T435A (HCV genotype 1a, isolate H77, UniProt P27958 192-383; P27958 384-746)
[15] = biological target: E1E2 complex (H77) with E2 mutation G436A (HCV genotype 1a, isolate H77, UniProt P27958 192-383; P27958 384-746)
[16] = biological target: E1E2 complex (H77) with E2 mutation A439G (HCV genotype 1a, isolate H77, UniProt P27958 192-383; P27958 384-746)
[17] = biological target: E1E2 complex (H77) with E2 mutation F442A (HCV genotype 1a, isolate H77, UniProt P27958 192-383; P27958 384-746)
[18] = biological target: E1E2 complex (H77) with E2 mutation Y443A (HCV genotype 1a, isolate H77, UniProt P27958 192-383; P27958 384-746)
[19] = biological target: E1E2 complex (H77) with E2 mutation F447A (HCV genotype 1a, isolate H77, UniProt P27958 192-383; P27958 384-746)
[20] = biological target: E1E2 complex (H77) with E2 mutation N448A (HCV genotype 1a, isolate H77, UniProt P27958 192-383; P27958 384-746)
[21] = biological target: E1E2 complex (H77) with E2 mutation R614A (HCV genotype 1a, isolate H77, UniProt P27958 192-383; P27958 384-746)
[22] = biological target: E1E2 complex (H77) with E2 mutation Y618A (HCV genotype 1a, isolate H77, UniProt P27958 192-383; P27958 384-746)

B1: N4 IgG (antibody, V domains shown)
VH: VQLLEQSGPEVKKPGDSLRISCKMSGDSLVTTWIGWVRQKPGQGLEWMGIINPGDSSTNIYPGDSATRYGPSFQGQVTISIDKSTSTAYLQWNNVKASDTGIYYCARHVPVPISGTFLWREREMHDFGYFDDWGQGTLVIVSS
VL: ELTLTQSPGTLSLSPGERATLSCRASQSVSNNYLAWYQQKPGQAPRLLIYGASSRATGIPDRFSGSGSGTGFTLIISRLEPEDFAVYYCQQYGSSSITFGQGTRLEIKR
notes: also called IgG N4
[1]
  Binding relative to wt (%): 34%
[2]
  Binding relative to wt (%): 54%
[3]
  Binding relative to wt (%): 59%
[4]
  Binding relative to wt (%): 115%
[5]
  Binding relative to wt (%): 117%
[6]
  Binding relative to wt (%): 80%
[7]
  Binding relative to wt (%): 67%
[8]
  Binding relative to wt (%): 12%
[9]
  Binding relative to wt (%): 114%
[10]
  Binding relative to wt (%): 34%
[11]
  Binding relative to wt (%): 100%
[12]
  Binding relative to wt (%): 125%
[13]
  Binding relative to wt (%): 98%
[14]
  Binding relative to wt (%): 122%
[15]
  Binding relative to wt (%): 107%
[16]
  Binding relative to wt (%): 12%
[17]
  Binding relative to wt (%): 22%
[18]
  Binding relative to wt (%): 5%
[19]
  Binding relative to wt (%): 28%
[20]
  Binding relative to wt (%): 48%
[21]
  Binding relative to wt (%): 16%
[22]
  Binding relative to wt (%): 33%
